The target of this assay is T1, Recombinant biotinylated human P-Selectin protein (human, UniProt P16109 42-771, limits assumed, biotinylated (site not stated)).
T1 sequence (looked up): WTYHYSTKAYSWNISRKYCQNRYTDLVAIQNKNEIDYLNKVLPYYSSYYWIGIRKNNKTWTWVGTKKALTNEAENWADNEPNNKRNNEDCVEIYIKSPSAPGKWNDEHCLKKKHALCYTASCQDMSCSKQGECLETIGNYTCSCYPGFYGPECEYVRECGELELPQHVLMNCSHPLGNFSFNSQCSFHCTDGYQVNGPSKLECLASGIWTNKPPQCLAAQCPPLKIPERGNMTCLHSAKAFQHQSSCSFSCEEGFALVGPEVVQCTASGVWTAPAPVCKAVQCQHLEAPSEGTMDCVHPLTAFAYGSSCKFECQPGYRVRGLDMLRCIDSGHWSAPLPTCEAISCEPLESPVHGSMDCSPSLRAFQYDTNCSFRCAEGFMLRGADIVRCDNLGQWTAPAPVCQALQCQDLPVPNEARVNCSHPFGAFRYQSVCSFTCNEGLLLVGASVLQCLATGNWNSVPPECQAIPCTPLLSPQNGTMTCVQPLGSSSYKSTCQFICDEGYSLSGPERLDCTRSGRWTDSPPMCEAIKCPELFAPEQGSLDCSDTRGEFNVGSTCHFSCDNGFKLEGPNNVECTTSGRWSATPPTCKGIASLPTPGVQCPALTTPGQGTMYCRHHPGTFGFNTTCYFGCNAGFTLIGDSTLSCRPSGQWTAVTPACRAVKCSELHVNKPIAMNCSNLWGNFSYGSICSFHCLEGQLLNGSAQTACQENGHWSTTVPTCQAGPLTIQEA
Briefly: SPR (Biacore), biotinylated human P-selectin captured on streptavidin chip, peptide as analyte; peptide BCY5455, a separate peptide number. Here is the method: Biacore experiments were performed to determine ka (M−1s−1), kd (s−1), KD (nM) values of monomeric peptides binding to human Selectin proteins. Recombinant biotinylated human P-Selectin protein was used. For analysis of binding, either a Biacore 3000 or 5200 instrument was used with a CMS sensor chip (GE Healthcare). For sensor chip surface preparation, streptavidin was immobilized on the chip using standard amine-coupling chemistry at 25° C. with HBS-N (10 mM HEPES, 0.15 M NaCl, pH 7.4) as the running buffer. The carboxymethyl dextran surface was activated with a 12 min injection of a 1:1 ratio of 0.4 M 1-ethyl-3-(3-dim ethyl aminopropyl) carbodiimide hydrochloride (EDC)/0.1 M N-hydroxy succinimide (NHS) at a flow rate of 10 μl/min. For capture of streptavidin, protein was diluted to 0.2 mg/ml in 10 mM sodium acetate (pH 4.5) and captured by injecting 70 μl onto the activated chip surface. Residual activated groups were blocked with a 7 min injection of 1 M ethanolamine (pH 8.5). Biotinylated protein stock was diluted 1:100 in HBS-N and captured on one flow cell at 5 μl/min to a level of 1000-1500 RU. Buffer was changed to PBS/0.05% Tween 20 and a dilution series of the peptides was prepared in this buffer with a final DMSO concentration of 0.5%. […] In all cases a titration was performed with either seven 2-fold dilutions or five 3-fold dilutions. […]
(In SPR one partner is held on a chip, and binding of the other changes the refractive index at the surface.)

In general, Kd refers to a measure of binding affinity in units of concentration.

Starred links: 1 amine or outer side, 2 acyl side, 3 side chain; linkers in the order of their positions; H or OH if unused. Positions of bridges follow the written chain, without caps; N, C: chain ends. *: point of attachment. TATA = O=C(CC[*:1])N1CN(C(=O)CC[*:2])CN(C(=O)CC[*:3])C1; Pent4ynoyl = C#CCCC(=O)*

B1: BCY5455 (peptide)
peptide: Pent4ynoyl-ACYMEWCDVTDYGCA-NH2
modifications: linker 2-7-14 via TATA; also: tandem dimer of 2 copies via central hinge C (GTA) and spacer S1A n=23 joined to N-terminal Pya
For B1, the Kd came to 1250 nM.

Source of the values: patent US20220339289A1 (Bicycle, published 2022).
